Measurements published in patent publication US7304127.

The binders below were run against HIV-1LAI envelope gp120 labeled with radioactive iodine (HIV-1 LAI), P03377 (assay: 125I-gp120, peptide array).

Binder | counts minus background (counts per 20 min)
ILPGIVILSCYCIIISKL (modifications not checked) [CXCR4 209-226] | 192
MVGLILPGIVILSCYCII (modifications not checked) [CXCR4 205-222] | 167
TVNLYSSVLILAFISLDR (modifications not checked) [CXCR4 117-134] | 242
DLWVVVFQFQHIMVGLIL (modifications not checked) [CXCR4 193-210] | 422
LLFVITLPFWAVDAVANW (modifications not checked) [CXCR4 85-102] | 63
ITLPFWAVDAVANWYFGN (modifications not checked) [CXCR4 89-106] | 130
LILAFISLDRYLAIVHAT (modifications not checked) [CXCR4 125-142] | 107
IPDFIFANVSEADDRYIC (modifications not checked) [CXCR4 169-186] | 438
HVIYTVNLYSSVLILAFI (modifications not checked) [CXCR4 113-130] | 118
IVILSCYCIIISKLSHSK (modifications not checked) [CXCR4 213-230] | 277
GNFLCKAVHVIYTVNLYS (modifications not checked) [CXCR4 105-122] | 231
DDRYICDRFYPNDLWVVV (modifications not checked) [CXCR4 181-198] | 125
IFANVSEADDRYICDRFY (modifications not checked) [CXCR4 173-190] | 267
FWAVDAVANWYFGNFLCK (modifications not checked) [CXCR4 93-110] | 66
QRPRKLLAEKVVYVGVWI (modifications not checked) [CXCR4 145-162] | 127
FISLDRYLAIVHATNSQR (modifications not checked) [CXCR4 129-146] | 91
AIVHATNSQRPRKLLAEK (modifications not checked) [CXCR4 137-154] | 73
LLLTIPDFIFANVSEADD (modifications not checked) [CXCR4 165-182] | 1010
YVGVWIPALLLTIPDFIF (modifications not checked) [CXCR4 157-174] | 124
YSSVLILAFISLDRYLAI (modifications not checked) [CXCR4 121-138] | 157
MLVILILINCKRLKSMTD (modifications not checked) [CCR5 49-66] | 84
FYPNDLWVVVFQFQHIMV (modifications not checked) [CXCR4 189-206] | 416
FVGNMLVILILINCKRLK (modifications not checked) [CCR5 45-62] | 62
DAVANWYFGNFLCKAVHV (modifications not checked) [CXCR4 97-114] | 112

Binder | counts minus background (counts per 20 min)
VVFQFQHIMVGLILPGIV (modifications not checked) [CXCR4 197-214] | 589
YSLVFIFGFVGNMLVILI (modifications not checked) [CCR5 37-54] | 347
TDKYRLHLSVADLLFVIT (modifications not checked) [CXCR4 73-90] | 92
WIPALLLTIPDFIFANVS (modifications not checked) [CXCR4 161-178] | 182
DRYLAIVHATNSQRPRKL (modifications not checked) [CXCR4 133-150] | 168
VSEADDRYICDRFYPNDL (modifications not checked) [CXCR4 177-194] | 157
SCYCIIISKLSHSKGHQK (modifications not checked) [CXCR4 217-234] | 259
LVMGYQKKLRSMTDKYRL (modifications not checked) [CXCR4 61-78] | 105
KLLAEKVVYVGVWIPALL (modifications not checked) [CXCR4 149-166] | 89
CKAVHVIYTVNLYSSVLI (modifications not checked) [CXCR4 109-126] | 243
FIFGFVGNMLVILILINC (modifications not checked) [CCR5 41-58] | 343
ATNSQRPRKLLAEKVVYV (modifications not checked) [CXCR4 141-158] | 78
ICDRFYPNDLWVVVFQFQ (modifications not checked) [CXCR4 185-202] | 306
MDYQVSSPIYDINYYTSE (modifications not checked) [CCR5 1-18] | 735
FQHIMVGLILPGIVILSC (modifications not checked) [CXCR4 201-218] | 170
LILINCKRLKSMTDIYLL (modifications not checked) [CCR5 53-70] | 2
GLVILVMGYQKKLRSMTD (modifications not checked) [CXCR4 57-74] | 157
EKVVYVGVWIPALLLTIP (modifications not checked) [CXCR4 153-170] | 147
SVADLLFVITLPFWAVDA (modifications not checked) [CXCR4 81-98] | 253
YQKKLRSMTDKYRLHLSV (modifications not checked) [CXCR4 65-82] | 99
RLHLSVADLLFVITLPFW (modifications not checked) [CXCR4 77-94] | 136
LRSMTDKYRLHLSVADLL (modifications not checked) [CXCR4 69-86] | 160
NWYFGNFLCKAVHVIYTV (modifications not checked) [CXCR4 101-118] | 96
